In article PMC7588467:

Target: OP protein cage
Assay: cryo-EM structure; OP cages empty, with SDS (800 equiv.) or with SDS:CS, in TSEC buffer; octahedral symmetry imposed; rigid-body fit of the OP crystal structure (PDB 6FDB)

OP protein cage
stoichiometry N (monomers per cage): 24
